Here are results for one molecule from patent US20140079722A1, “EXTRACELLULAR TARGETED DRUG CONJUGATES” (CENTROSE, LLC, priority 2011, published 2014).

Data set [1] deals with A549 xenograft. Description: A549 xenograft model (cell implant). It is filed as in vivo, Hsd:Athymic Nude-Foxn1nu mice. As to the method:
Briefly, to establish a non-small-cell lung cancer disease model, 6×10^6 A549 cells in 200 μL, RPMI1640+50% Matrigel HC (BD Biosciences, San Jose, Calif.) were implanted into the left flank of Hsd:Athymic Nude-Foxn1^nu mice (Harlan, Indianapolis, Ind.). Therapy with antibody-drug conjugates was then initiated when the tumor volume in groups of 5 animals averaged ˜300 mm^3. Treatment using vehicle control, 0.1 and 1 mg/kg M53-PEG24-CEN09-106, and 10 mg/kg control M53-PEG24-CEN09-106 (a control conjugate with a drug loading of 7 drugs per antibody where the antibody's target is not on the cell surface but drug and linker and antibody isotype are the same as M53-PEG24-CEN09-106) were all administered i.v. using the schedule of one injection every 7 days with 3 total injected doses (q7d×3). 15 mg/kg paclitaxel dosed at q2d×5 served as a positive control treatment group. Using this schedule, tumor volumes were measured for each group using calibrated vernier calipers and plotted against first day of tumor implant for 54 days post-implant and 40 days post-initial dose, to produce the graph shown in FIG. 3.

Data set [2] concerns H460 xenograft. Description: H460 xenograft model. It is filed as in vivo, Hsd:Athymic Nude-Foxn1nu mice. As to the method: Briefly, to establish a large-cell lung cancer disease model, 1×10^6 H-460 cells in 100 μL RPMI1640+30% Matrigel HC (BD Biosciences, San Jose, Calif.) were implanted into the left flank of Hsd:Athymic Nude-Foxn1^nu mice (Harlan, Indianapolis, Ind.). Therapy was initiated when the tumor size in groups of 5 animals averaged ˜200 mm^3. Treatment using vehicle control, M53-PEG24-CEN09-106 at 0.1 and 1 mg/kg, and 10 mg/kg control M53-PEG24-CEN09-106 (as described above) consisted of multiple i.v. injections using the schedule of one injection every 7 days for 2 injections (q7d×2). Paclitaxel served as a positive control treatment group and was dosed i.v. at 15 mg/kg using the schedule of one injection every 2 days for 5 injections (q2d×5). Using this schedule, tumor volumes were measured for each group using calibrated vernier calipers and plotted against day of tumor implant for 24 days post-implant and 12 days post-initial dose, graphed and shown in FIG. 5.

B1: M53-PEG24-CEN09-106: Class 1 EDC: antibody M53 conjugated to linker-ready agent PEG24-CEN09-106 (scillarenin, 4-amino-xyloside, PEG24) (conjugate)
heavy: EVQLVESGGGLVQPKGTLKLSCAASGFSFNTHAMNWVRQAPGKSLEWVARTMSKSNNYATYYADSVKDRFIIRADDSQSMLYLQMNNLKTEDTAMYYCVRDDPKRGMDYWGQGTSVTVSSAKTTPPSVYPLAPGSAAQTNSMVTLGCLVKGYFPEPVTVTWNSGSLSSGVHTFPAVLQSDLYTLSSSVTVPSSTWPSETVTCNVAHPASSTKVDKKIE
light: GIVMSQSPSSLAVSVGEKVTMSCKPSQSLLYSRNQKIYLAWYQQKPGQSPKLLIYWASTRESGVPDRFTGSGSGTDFTLIISSVRAEDLAVYYCQQYYNYPLTFGAGTKLELKRADAAPTVSIFPPSSEQLTSGGASVVCFLNNFYPKDINVKWKIDGSERQNGVLNSWTDQDSKDSTYSMSSTLTLTKDEYERHNSYTCEATHKTSTSPIVKSFNR
For the molecule B1, the “growth inhibition of the tumor compared to vehicle” value in data set [1] (drug loading of 8, 0.1 mg/kg i.v. q7dx3, A549 xenograft) came out at 35%; in data set [1] (drug loading of 8, 1 mg/kg i.v. q7dx3, A549 xenograft), 65%; in data set [2] (drug loading of 8, 0.1 mg/kg i.v. q7dx2, H460 xenograft), 38%; in data set [2] (drug loading of 8, 1 mg/kg i.v. q7dx2, H460 xenograft), 73%. The weight loss entry in data set [2] (EDC 0.1 mg/kg q7dx2, paclitaxel 15 mg/kg q2dx5, H460 xenograft) is on record as “no weight loss”.
